Measurements taken from PMC13544220, “Glycemic and bodyweight effects of GIPR coding variation reflect differences in surface expression and intrinsic functional impairment” (Science Advances, 2026).

Assays:
Format in all cases: cell-based, human
[1] = tested on: wild-type and variant SNAP-GIPR; assay: Single-concentration GIP cAMP response by HTRF in INS-1 cells; settings: Fig S3E, mean
Description: (§1) All variants were tested in parallel on each occasion to control for transfection efficiency differences between experiments.

[2] = tested on: wild-type and variant SNAP-GIPR; assay: Single-concentration GIP cAMP response by HTRF in AD293 cells; settings: Fig S3F, HTRF, mean;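 also: ratio to experiment-wide average response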
Description: as §1

[3] = tested on: wild-type and variant SNAP-GIPR; assay: Constitutive and agonist-mediated internalization, reversible SNAP-tag labelling, AD293 cells; parameters: key to Internalisation, Vehicle / Internalisation, +GIP / Internalisation, GIP-only: % internalization: residual fluorescence after Mesna vs pre-Mesna; Surface expression: unit not given here; settings: Mean
Description: (§2) Twenty-four hours before the experiment, AD293 or INS-1 cells were reverse transfected with GIPR variant or wild-type plasmids using Lipofectamine 2000 in 96-well, clear-bottom, black microplates precoated with poly-D-lysine. All variants were tested in parallel on each occasion to control for transfection efficiency differences between experiments. […] Media were then removed, cells washed with PBS and then placed in TNE buffer (pH 8.6) for imaging. […] After 10 min, the well was reimaged again to detect remaining fluorescence from internalized GIPR. Images were analyzed as in the “Assessment of surface GIPR expression by SNAP-tag labeling in cell lines” section, with the residual specific fluorescence after Mesna treatment expressed relative to the pre-Mesna value to establish percentage internalization.

[4] = tested on: wild-type and variant SNAP-GIPR; assay: Surface SNAP-GIPR expression (SNAP-tag labelling) in INS-1 cells; settings: Fig 4G; Mean
Description: (§3) Twenty-four hours before the experiment, AD293 or INS-1 cells were reverse transfected with GIPR variant or wild-type plasmids using Lipofectamine 2000 in 96-well, clear-bottom, black microplates precoated with poly-D-lysine. All variants were tested in parallel on each occasion to control for transfection efficiency differences between experiments. Cells were then labeled using the cell-impermeant probe SNAP-Surface Alexa Fluor 647 (500 nM, New England Biolabs, USA) for 10 min at room temperature to label only surface GIPR. […] Several fields of view (FOVs) were acquired within each well using a 20X, 0.75–numerical aperture (NA) air objective. Surface GIPR fluorescence was quantified after flat-field correction using BaSiC ([72]) and segmenting using Phantast ([73]), which generates a mask based on the phase contrast images to demarcate cell versus noncell. Wide-field imaging of the surface-specific labeling achieved by SNAP-Surface probes means that surface expression can be established from whole-cell fluorescence, after subtracting nonspecific fluorescence from a separate well containing nontransfected cells processed in parallel from the same experiment. Data were normalized by dividing by the average specific signal across each experiment, or by the wild-type value, as indicated in the figure legends.

[5] = tested on: wild-type and variant SNAP-GIPR; assay: cADDis cAMP imaging in AD293 cells, ensemble, expression-matched and per decile; settings: Fig S3F, cADDis, mean
Description: AD293 cells were reverse transfected with the GIPR variant or wild-type plasmids using Lipofectamine 2000 and cotransduced with the cADDis Green Up BacMam (10 μl per well, Montana Molecular, USA), in 96-well, poly-D-lysine–coated microplates. All variants were tested in parallel on each occasion to control for transfection efficiency differences between experiments. After 24 hours, cells were labeled using 500 nM SNAP-Surface Alexa Fluor 647 for 10 min at room temperature. Cells were washed three times and then imaged in KRBH buffer containing 6 mM glucose and 0.1% BSA. Imaging was performed at 37°C by wide-field microscopy using the same microscope as in the “Assessment of surface GIPR expression by SNAP-tag labeling in cell lines” section, with 9 FOVs for both cADDis and SNAP-Surface fluorescence acquired from each well using a 10X, 0.45 NA air objective. […] Flat-field correction was performed using BaSiC ([72]), drift correction was performed using SIFT, and a maximum intensity projection of the cADDis channel was used to segment individual cells. cAMP responses were determined by quantifying the cADDis fluorescence intensity for each cell at each time point. Nonviable cells or noncell objects were excluded according to criteria for allowable cell IBMX/FSK responses. […] The cADDis mask was then used to quantify the SNAP-Surface signal from each cell. Wild-type SNAP-Surface readings were split into deciles, and these deciles were subsequently used to categorize variant-transfected cells to match against the wild type. After trimming the top and bottom deciles, the mean was taken of each decile mean for surface expression level or cAMP response, which achieved matched expression levels by effectively applying an inverse weighting to counteract differences in cell number in each decile for different variants. Ensemble expression levels or cAMP responses were calculated without regard to deciles. Variant cADDis responses were also analyzed within their own surface expression deciles.

[6] = tested on: wild-type and variant SNAP-GIPR; assay: Constitutive and agonist-mediated internalization, reversible SNAP-tag labelling, INS-1 cells; parameters: key to Internalisation, GIP-only / Internalisation, Vehicle / Internalisation, +GIP: % internalization: residual fluorescence after Mesna vs pre-Mesna; settings: Mean
Description: as §2

[7] = tested on: wild-type and variant SNAP-GIPR; assay: Surface SNAP-GIPR expression (SNAP-tag labelling) in AD293 cells; settings: for AD293 Surface: Fig S3E, mean; for Surface SNAP-GIPR expression: sheet Fig 1C;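 as to all read-outs here: scaled to the experimental average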
Description: as §3

B1: I378M (protein, UniProt P48546 22-466, looked up, variant I378M)
Gastric inhibitory …: RAETGSKGQTAGELYQRWERYRRECQETLAAAEPPSGLACNGSFDMYVCWDYAAPNATARASCPWYLPWHHHVAAGFVLRQCGSDGQWGLWRDHTQCENPEKNEAFLDQRLILERLQVMYTVGYSLSLATLLLALLILSLFRRLHCTRNYIHINLFTSFMLRAAAILSRDRLLPRPGPYLGDQALALWNQALAACRTAQIVTQYCVGANYTWLLVEGVYLHSLLVLVGGSEEGHFRYYLLLGWGAPALFVIPWVIVRYLYENTQCWERNEVKAIWWIIRTPILMTILINFLIFIRILGILLSKLRTRQMRCRDYRLRLARSTLTLVPLLGVHEVVFAPVTEEQARGALRFAKLGFEMFLSSFQGFLVSVLYCFINKEVQSEIRRGWHHCRLRRSLGEEQRQLPERAFRALPSGSGPGEVPTSRGLSSGTLPGPGNEASRELESYC
[1]
  INS-1 cAMP (100 nM): 1.242
[2]; AD293, 100 pM
  AD293 100 pM HTRF: 1.235
[2]; AD293, 100 nM
  AD293 100 nM HTRF: 1.479
[3]; Fig 4E, GIP 100 nM
  +GIP internalisation (100 nM): 1.013
  GIP-specific internalisation (100 nM): 0.2773
[3]; Fig 4E
  Constitutive internalisation (100 nM): 0.7358
  Surface expression: 1.854
[3]; Fig S4C, AD293
  Internalisation, +GIP: 54.7212
  Internalisation, GIP-only: 14.9417
  Internalisation, Vehicle: 39.7795
[4]
  Surface expression: 1.534
[5]; AD293, 100 pM
  AD293 100 pM cADDis: 37.0191
[5]; AD293, 100 nM
  AD293 100 nM cADDis: 39.23
[6]; Fig 4G, GIP 100 nM
  +GIP internalisation (100 nM): 0.6937
  GIP-specific internalisation (100 nM): 0.1611
[6]; Fig 4G
  Constitutive internalisation (100 nM): 0.5325
[6]; Fig S4C, INS-1
  Internalisation, +GIP: 45.8367
  Internalisation, GIP-only: 10.74
  Internalisation, Vehicle: 35.0967
[7]; column repeated, paired with cAMP 100 nM
  AD293 Surface: 1.77
[7]; paired with cAMP 100 pM
  AD293 Surface: 1.77
[7]; replicate 1
  Surface SNAP-GIPR expression: 1.773
[7]; replicate 2
  Surface SNAP-GIPR expression: 1.115
[7]; replicate 3
  Surface SNAP-GIPR expression: 0.7558
[7]; replicate 4
  Surface SNAP-GIPR expression: 2.264
[7]; replicate 5
  Surface SNAP-GIPR expression: 2.029
[7]; replicate 6
  Surface SNAP-GIPR expression: 1.522
[7]; replicate 7
  Surface SNAP-GIPR expression: 1.263
[7]; replicate 8
  Surface SNAP-GIPR expression: 1.045
[7]; replicate 9
  Surface SNAP-GIPR expression: 1.7
[7]; replicate 10
  Surface SNAP-GIPR expression: 1.857
[7]; replicate 11
  Surface SNAP-GIPR expression: 1.523
[7]; replicate 12
  Surface SNAP-GIPR expression: 1.59
[7]; replicate 13
  Surface SNAP-GIPR expression: 1.942
[7]; replicate 14
  Surface SNAP-GIPR expression: 2.071
[7]; replicate 15
  Surface SNAP-GIPR expression: 1.739
[7]; replicate 16
  Surface SNAP-GIPR expression: 1.656
[7]; replicate 17
  Surface SNAP-GIPR expression: 1.757
[7]; replicate 18
  Surface SNAP-GIPR expression: 2.038
[7]; replicate 19
  Surface SNAP-GIPR expression: 1.806
[7]; replicate 20
  Surface SNAP-GIPR expression: 1.652
[7]; replicate 21
  Surface SNAP-GIPR expression: 1.678
[7]; replicate 22
  Surface SNAP-GIPR expression: 1.86
[7]; replicate 23
  Surface SNAP-GIPR expression: 1.91
[7]; replicate 24
  Surface SNAP-GIPR expression: 1.99
[7]; replicate 25
  Surface SNAP-GIPR expression: 1.721
[7]; replicate 26
  Surface SNAP-GIPR expression: 1.677
[7]; replicate 27
  Surface SNAP-GIPR expression: 2.102
[7]; replicate 28
  Surface SNAP-GIPR expression: 2.164
[7]; replicate 29
  Surface SNAP-GIPR expression: 2.007
[7]; replicate 30
  Surface SNAP-GIPR expression: 1.865
[7]; replicate 31
  Surface SNAP-GIPR expression: 1.878
[7]; replicate 32
  Surface SNAP-GIPR expression: 1.784
[7]; replicate 33
  Surface SNAP-GIPR expression: 1.822
[7]; replicate 34
  Surface SNAP-GIPR expression: 1.937
[7]; replicate 35
  Surface SNAP-GIPR expression: 1.581
[7]; replicate 36
  Surface SNAP-GIPR expression: 1.504
[7]; replicate 37
  Surface SNAP-GIPR expression: 2.229
[7]; replicate 38
  Surface SNAP-GIPR expression: 1.734
[7]; replicate 39
  Surface SNAP-GIPR expression: 2.181
[7]; replicate 40
  Surface SNAP-GIPR expression: 1.889
[7]; replicate 41
  Surface SNAP-GIPR expression: 1.94
